Assay [1] deals with T1, human MS4A4A ECL1 peptide (amino acid residues 86-98) (human).
T1 construct: synthetic peptide
T1 peptide: CMASNTYGSNPIS
Briefly: ELISA, hybridoma supernatant. As for the experimental part: (§1) Briefly, 96-well polystyrene plates were coated with 1-10 μg/ml of synthetic free or BSA-conjugated peptides in coating buffer (0.05M carbonate buffer, pH9.6, Millipore Sigma C3041) overnight at 4° C. Coated plates were then blocked with ELISA diluent (PBS+0.5% BSA+0.05% Tween20) for 1-hour, washed 3×300 μL in PBST (PBS+0.05% Tween20, Thermo Cat#28352), and then the antibodies were added to the plate ([…]). After 30 mins incubation (room temperature, with shaking), the plates were washed 3×300 μL in PBST. […] After a final set of washes (3×300 μL in PBST), 50 μL of TMB substrate (BioFx TMBW-1000-01) was added and the reaction was then quenched after 5-10 mins with 50 μL of stop solution (BioFx BSTP-1000-01). The quenched reaction wells were detected for absorbance at 650 nm with a BioTek Synergy Microplate Reader using GENS 2.04 software.

Assay [2] concerns the target T2, human MS4A6A ECL2 peptide (amino acid residues 138-185) (human).
T2 peptide: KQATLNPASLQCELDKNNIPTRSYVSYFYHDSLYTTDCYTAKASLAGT
As to the kind of experiment: array SPR. As for the experimental part: (§2) Binding kinetic characterization of the anti-MS4A4A antibodies to MS4A4A ECL1 and ECL2 and to MS4A6A ECL1 and ECL2 peptides was performed by Carterra (South San Francisco, Calif.) using a proprietary array Surface Plasmon Resonance (SPR) instrument (MX-96) as follows. Antibodies were captured onto a CMD500D chip (Xantec # SPMX CMD500D) using the Continous Flow Microspotter (CFM). First, the chip was activated with 100 mM MES pH 5.5, 100 μL EDC (133 mM final), 100 μL of S-NHS (33.3 mM final), for 7 minutes. […] Anti-MS4A4A hydridoma supernatant or purified anti-MS4A4A antibodies were diluted in HBS-EP+ buffer (Teknova Cat # H8022) and then printed as duplicates with a 20 minute and a 5-minute print from the same sample solution.
(§3) These were then injected on the chip for five minutes, followed by a seven-minute dissociation period at 8 uL per second in a non-regenerative kinetic series. Duplicate measurements for each anti-MS4A4A antibody were taken to ensure reproducibility. Association rates (Kon) and dissociation rates (Koff) were calculated using a single one-to-one Langmuir binding model. The equilibrium dissociation constant (KD) was calculated as the ration of Koff/Kon.

Assay [3] addresses T3, human MS4A6A ECL1 peptide (amino acid residues 68-85) (human).
T3 peptide: SASFSPNFTQVTSTLLNS
Briefly: array SPR. As to the method: as §2, §3

Assay [4] concerns the target human MS4A4A (human, UniProt Q96JQ5 1-239). As to the kind of experiment: FACS, HEK293, supernatant. As to the method:
(§4) Positive clones identified above were expanded and then rescreened for specificity against HEK293 cells overexpressing human MS4A4A or cyno MS4A4A and parental HEK293 cells. These experiments were performed using supernatants from hybridoma clones which had undergone further expansion after initial selection. Briefly, previously prepared, cryopreserved transiently-transfected cells were labeled with LIVE/DEAD Fixable Aqua Dead Cell Stain Kit (ThermoFisher Scientific L34957) on ice for 30 minutes. After a wash with PBS, 2×10⁵ cells were aliquoted per well in 96-well U-bottom plates and incubated with 50 μl of culture supernatant on ice for 30 minutes. […] Following this secondary incubation, the cells were again washed twice with ice-cold FACS buffer and resuspended in a final volume of 200 μl of FACS buffer. Analysis was performed on a FACS Canto system (BD Biosciences), with sort gates drawn to exclude dead (Aqua-positive) cells. Positive clones (fold change of 1.8 or greater) were carried forward for further testing.
Background: In flow cytometry, cells or beads pass a laser one at a time.

In assay [5] the target is T4, cynomolgus (cyno) MS4A4A (cynomolgus).
T4 construct: also called cy4A; Cyno 4A
Briefly: FACS, HEK293, supernatant. As for the experimental part:
as §4

In assay [6] the target is T5, BSA-conjugated human MS4A4A ECL2 peptide (amino acid residues 159-179) (human, conjugated to BSA (site not stated)).
T5 construct: also called MS4A4A-ECL2 BSA conjugated peptide; BSA-MS4A4A-ELC2 peptide
T5 peptide: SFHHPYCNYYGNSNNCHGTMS
Briefly: ELISA, supernatant. As to the method: as §1
On the technique in general: In an ELISA, binding on a coated surface is turned into a signal by an enzyme label.

B1: anti-MS4A4A antibody 4A-3 (antibody, V domains shown)
VH: QIQLVQSGPELKTPGETVKISCKSSGYTFTKYGMNWVKQAPGKGLKWMAWINTYTAEPTYGDDFKGRFALSLETSANTAYLQINNLKNEDTATYFCARSAELVRHYYALDYWGQGTSVTVSS
VL: DVLMTQTPLSLPVSLGDQASISCRSSQSLVHSNGNIYLEWFLQKPGQSLKILIYKVSNRFSGVPDRFSGSGSGTDFTLKISRVEADDLGVYYCSQGSHVPPTFGAGTKLELR
notes: murine hybridoma antibody
As to B1, the binding result was “no binding” in assay [1], “no binding (tested: 2000 nM)” in assay [2], “no binding (tested: 2000 nM)” in assay [3] and “binds” in assay [6]. Besides, in assay [4], the “Human 4A:parental cell ratio” value was found to be 7.31 ratio. Moreover, the “Cyno 4A:parental cell ratio” value in assay [5] turned out to be 2.58 ratio.

B2: anti-MS4A4A antibody 4A-20 (antibody, V domains shown)
VH: EVQLQQSGPELVKPGASVKIPCKASGYTFTDYNMDWVKQSHGKSLDWIGDINPNNGYTIYNQKFKGKATLTVDKSSSTAYMELRRLTSEDTAVYYCARSTGPYFDYWGQGTTLTVSS
VL: DIQMTQSPASLSASVGETVTITCRASENIYSYLAWYQQKQGKSPQFLVYNGKTLAEGVPSRFSGCGSGTQFSLKINSLQPEDFGSYYCQHHYGIPRTFGGGTKLEIK
notes: murine hybridoma antibody
Turning to B2, the binding result in assay [1] is “no binding”; in assay [2], “no binding (tested: 2000 nM)”; in assay [3], “no binding (tested: 2000 nM)”; in assay [6], “binds”.

B3: anti-MS4A4A antibody 4A-4 (antibody, V domains shown)
VH: EIQLQQTGPDLVKPGTSVKISCKASGYSFTDYVLVWVKQSHGKSLEWIGNINPYYGNSDYNLKFEGKARLTVDRSSSTAYMQLNSLTSEDSAVYYCARYGLYAMDFWGQGTSVTVSS
VL: DVLMTQTPLSLPVSLGDQASISCRSSQTIVHSNGNSYLEWYLQKPGQSPKLLIYKVSNRFSGVPDRFSGSGSGTVFTLKISRVEAEDLGVYFCFQSSHVPLTFGVGTKLELK
notes: murine hybridoma antibody
As to B3, the binding result is listed as “no binding” in assay [1], “no binding (tested: 2000 nM)” in assay [2], “no binding (tested: 2000 nM)” in assay [3] and “binds” in assay [6]. Further, the “Human 4A:parental cell ratio” value in assay [4] came out at 4.78 ratio. Also, the “Cyno 4A:parental cell ratio” value in assay [5] came out at 2 ratio.

B4: anti-MS4A4A antibody 4A-10 (antibody, V domains shown)
VH: EVKLEESGGGLVQPGGSMKLSCAASGFTFSDAWMDWVRQSPEKGLEWVAEIRSKANDHATYYAESVKGRFTISRDDSKSSVYLQMNSLRAEDTGIYYCSVDYYGFFWGQGTLVTVSA
VL: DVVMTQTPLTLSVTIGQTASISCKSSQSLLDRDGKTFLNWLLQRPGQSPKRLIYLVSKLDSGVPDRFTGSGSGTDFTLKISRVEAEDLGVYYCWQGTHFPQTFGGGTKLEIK
notes: murine hybridoma antibody
Take B4: the binding result in assay [1] is “no binding”; in assay [2], “no binding (tested: 2000 nM)”; in assay [3] it was “no binding (tested: 2000 nM)”. In assay [4], the “Human 4A:parental cell ratio” value turned out to be 6.55 ratio. For the same molecule, in assay [5], the “Cyno 4A:parental cell ratio” value was 2.33 ratio.

B5: anti-MS4A4A antibody 4A-13 (antibody, V domains shown)
VH: EVKLEESGGGLVQPGGSMKLSCAASGFTFSDAWMDWVRQSPEKGLEWVAEIRSKANDHATYYAESVKGRFTISRDDSKSSVYLQMNSLRAEDTGIYYCSVDYYGFFWGQGTLVTVSA
VL: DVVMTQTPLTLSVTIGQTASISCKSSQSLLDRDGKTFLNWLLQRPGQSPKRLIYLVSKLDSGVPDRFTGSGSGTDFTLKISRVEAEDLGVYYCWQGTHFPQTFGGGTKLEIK
notes: murine hybridoma antibody; same VH and VL entries as 4A-10
Consider B5, for which the figures for the binding result in assay [1], in assay [2] and in assay [3] were “no binding”, “no binding (tested: 2000 nM)” and “no binding (tested: 2000 nM)”, respectively. Further, the “Human 4A:parental cell ratio” value in assay [4] is 43.8 ratio. For the same molecule, the “Cyno 4A:parental cell ratio” value in assay [5] was determined as 9.94 ratio.

B6: anti-MS4A4A antibody 4A-16 (antibody, V domains shown)
VH: EVKLEESGGGLVQPGGSMKLSCAASGFTFSDAWMDWVRQSPEKGLEWVAEIRSKANDHATYYAESVKGRFTISRDDSKSSVYLQMNSLRAEDTGIYYCSVDYYGFFWGQGTMVTVSA
VL: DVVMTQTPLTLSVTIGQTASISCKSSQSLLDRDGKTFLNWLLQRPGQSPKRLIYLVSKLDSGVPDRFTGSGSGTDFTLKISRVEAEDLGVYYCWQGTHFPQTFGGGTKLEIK
notes: murine hybridoma antibody
Turning to B6, the binding result in assay [1] is listed as “no binding”; in assay [2], “no binding (tested: 2000 nM)”; in assay [3] it was “no binding (tested: 2000 nM)”; in assay [6], “binds”. In addition, in assay [4], the “Human 4A:parental cell ratio” value was 5.93 ratio. Further, in assay [5], the “Cyno 4A:parental cell ratio” value was found to be 2.65 ratio.

The values above are taken from patent publication US20230126400A1 (Alector, published 2023).
